Measurements taken from article PMC12101485 (Science Advances, 2025).

Target: purified human BAG3 protein (human, UniProt O95817 1-575)
Assay: peptide or protein array

purified human BAG3 protein, sequence (O95817 whole entry): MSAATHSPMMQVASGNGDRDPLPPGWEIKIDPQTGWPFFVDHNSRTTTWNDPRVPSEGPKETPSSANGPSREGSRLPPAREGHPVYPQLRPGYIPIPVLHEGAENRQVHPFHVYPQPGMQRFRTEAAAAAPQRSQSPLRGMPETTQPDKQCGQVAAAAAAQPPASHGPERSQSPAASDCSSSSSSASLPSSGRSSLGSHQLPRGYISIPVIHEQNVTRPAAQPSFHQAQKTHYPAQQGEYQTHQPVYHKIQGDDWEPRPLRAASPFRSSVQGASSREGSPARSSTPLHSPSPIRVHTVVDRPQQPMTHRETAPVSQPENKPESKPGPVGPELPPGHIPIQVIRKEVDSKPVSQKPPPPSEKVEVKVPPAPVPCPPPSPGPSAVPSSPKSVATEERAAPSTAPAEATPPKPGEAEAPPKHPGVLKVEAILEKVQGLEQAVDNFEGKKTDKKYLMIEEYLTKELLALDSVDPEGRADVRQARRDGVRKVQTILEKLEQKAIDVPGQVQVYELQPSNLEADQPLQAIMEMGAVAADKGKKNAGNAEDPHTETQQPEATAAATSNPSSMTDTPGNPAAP

B1: I465-A494 region of human BACE1 (peptide array spots) (peptide, UniProt P56817 465-494, looked up)
peptide: ICALFMLPLCLMVCQWRCLRCLRQQHDDFA
binding result: binds
